Assay results taken from patent publication US20210154269A1.
pKd: −log10 of the molar value.

Columns and labels:
human CD47 (human) [1] = target: human CD47 (human) (UniProt Q08722); assay: cell-based or functional assay
human CD47 (human) [2] = target: human CD47 (human) (UniProt Q08722); assay: affinity for human CD47; method not stated
human CD47 (human) [3] = target: human CD47 (human) (UniProt Q08722); assay: in vitro receptor occupancy assay, at ~1 µM

EC50, PathHunter SIRPα Signaling Bioassay (human CD47 (human) [1]) | inhibition of SIRPα signaling at 1 nM (human CD47 (human) [1]) | pKd (human CD47 (human) [2]) | receptor occupancy (human CD47 (human) [3]) | Substance
> 0.15 µg/mL | < 10% | 6.30 | 40% | TTI-622 (from UniProt P78324 31-149) (Fc fusion)
> 0.15 µg/mL | < 10% | 6.30 | 40% | TTI-621 (from UniProt P78324 31-149) (Fc fusion)
